# Results reported in patent US20160136272A1, “METHODS FOR RESTORING CORTICOSTEROID SENSITIVITY” (priority 2013, published 2016).
# B1: 37B7: anti-human TLR3 Ab used in Example 11; VH/VL SEQ ID NO 71/72 (antibody, listed as Rattus norvegicus, V domains shown)
# VH: QVQLQQSGTELVKPGSSVKISCKASGYTFTSNYMHWIRQLPGNGLEWIGWIFPGDGDTNYNQKFNGKATLTADKSSSTAYMQLSSLTSEDYAVYFCARSDGDWYFDFWGPGTMVTVSS
# VL: DIQMTQSPGSLSASLGETVTIQCQASEDIYSGLAWYQQKPRKSPQLLISAASRLQDGVPSRFSGSGSGTQYSLKISSMQTEDEGVYFCQQGVKYPNTFGPGTKLELK
# B2: 34A3: anti-human TLR3 mAb; VH/VL SEQ ID NO 77/78 (antibody, listed as Mus musculus, V domains shown)
# VH: MEWRWIFLFLLSGTTGVHSEIQLQQSGPELVKPGASVKVSCKASGYVFTTYSIYWVKQSHGKSLEWIGYIDPYNGDTSYNQKFKGKATLTVDKSSSTAYMHLNSLTSEDSTVYYCAREGNYYGYFDYWGQGTTLTVS
# VL: MDFQVQIFSFLLMSASVIMSRGQIVLTQSPALMSASPGEKVTMTCSASSSVSYMFWYQQKPRSSPKPWIYLTSNLASGVPARFSGSGSGTSYSLTISSMEAEDAATYYCQQWTGNPPTFGGGTKLEIK
# B3: 31C3: anti-human TLR3 mAb, cell deposited as 31C3.1, CNCM I-4186; VH/VL SEQ ID NO 75/76 (antibody, listed as Mus musculus, V domains shown)
# VH: MGWSWIFLFLLSGTAGVLSEVQLQQSGPELVKPGASVKISCKPSGYSFTAYYMHWVKQSHVKSLEWIGRINPYNGATSYNRNFKDKASLTVDKSSSTAYMELHSLTSEDSAVYYCARSGGNTYFDYWGQGTTLTVS
# VL: MSVPTQVLGLLLLWLTGARCDIQMTQSPASLSASVGETVTITCRASENIYSSLAWYQQKQGKSPQLLVYNAKTLAEGVPSRFSGSGSGTQFSSLKINSLQPEDFGTYYCQHHYGTPPTFGGGTKLEIK
# What was measured:
# BEAS-2B cell line = experiment: IL-6 and IP-10 production by BEAS-2B cells in response to polyAU (ELISA); format: cell-based, human; conditions: 300 μg/ml IPH3102, 24 h
# Procedure: IL-6 and IP-10 production was assessed in PBMC and virus-transformed lung epithelial BEAS-2B cell line in response to high molecular weight polyAU (IPH3102), a specific agonist of TLR3. Experiments with BEAS-2B were performed in Bronchial Epithelial Growth Medium (Lonza, #CC-3170). 2×10^4 BEAS-2B per well were plated in flat-bottom 96W plates in 100 μl culture medium and incubated over night at 37° C. A part of the cells was treated for 24-supplemental hours with 1000 UI/ml Intron A (Schering Plough, IFN-alpha 2b). Medium was discarded and 37B7 anti-human TLR3 Ab (0.01 and 0.1 μg/ml in the condition without Intron A and 0.01 and 0.3 μg/ml after treatment with Intron A) was added to the culture. Cells were incubated 30 min at 37° C. prior addition of Dexamethasone (1, 0.1, 0.01, 0.001 μg/ml in the condition […] and 10, 1, 0.1, 0.01 μg/ml after treatment with Intron A) or Budesonide (1, 0.1, 0.01, 0.001 μg/ml). Cells were incubated 30-additional min at 37° C. before addition of 300 μg/ml IPH3102. Cells were finally incubated for 24-additional hours and supernatants were harvested to quantify IL-6 and IP-10 production by ELISA.
# PBMC = experiment: IP-10 production by donor PBMC in response to dsRNA and drug combinations (ELISA); format: cell-based, human; conditions: for IP-10 production in response to polyIC, antibody combined with methotrexate, dexamethasone or Humira / IP-10 production in response to polyAU, antibody combined with methotrexate, dexamethasone or Humira: antibody 50 μg/ml plus dose range of drug; for IP-10 production in response to polyIC, antibody combined with methotrexate, dexamethasone or Humira / IP-10 production in response to polyIC: 30 μg/ml poly(I:C); for IP-10 production in response to polyIC, antibody combined with methotrexate, dexamethasone or Humira: donors 1 and 2; for IP-10 production in response to polyAU, antibody combined with methotrexate, dexamethasone or Humira: 300 μg/ml IPH3102, donor 2; for IP-10 production in response to polyIC / IP-10 production in response to polyAU: antibody 50 μg/ml; for IP-10 production in response to polyIC: 24 h, human donors 1 and 2; for IP-10 production in response to polyAU: 300 μg/ml IPH3102, 24 h, human donor 2
# Procedure: IP-10 production was assessed in human donors in response to polyAU (IPH3102), believed to be a specific agonist of TLR3, or plC, believed to be an agonist of TLR3 as well as other dsRNA receptors such as RIG-I and MDA-5. Fresh PBMC were isolated from whole blood of two independent donors. 1.5×10^6 (donor #1) and 3×10^6 (donor #2) PBMC per ml were incubated in flat-bottom 96W plates in the presence of 50 μg/ml 31C3 or 34A3 anti-human TLR3 mAbs and a dose range of methotrexate (300, 30 and 3 μg/ml), dexamethasone (200, 20, 2 μg/ml) or Humira® (100, 10, 1 μg/ml). Cells were incubated 1 hr at 37° C. prior addition of 300 μg/ml IPH3102 or 30 μg/ml poly(I:C). Cells were incubated for 24 additional hours at 37° C. Supernatant were then harvested to quantify IP10 production by ELISA. Cells were then recovered, stained with 7-AAD and analyzed by flow cytometry (FACS) to evaluate potential toxic effects of any drugs.
Molecule,"IL-6 production by BEAS-2B, anti-TLR3 Ab combined with dexamethasone or budesonide (BEAS-2B cell line; highest anti-TLR3 Ab dose)",block of BEAS-2B IL-6 production (BEAS-2B cell line; highest concentration of anti-TLR3 Ab),"IP-10 production in response to polyIC, antibody combined with methotrexate, dexamethasone or Humira (PBMC)","IP-10 production in response to polyAU, antibody combined with methotrexate, dexamethasone or Humira (PBMC)",IP-10 production in response to polyIC (PBMC),IP-10 production in response to polyAU (PBMC)
B1,strong additive inhibition,~50%,–,–,–,–
B2,–,–,reduce IP-10 further,reduce IP-10 further,substantially reduce IP-10 production,substantially reduce IP-10 production
B3,–,–,reduce IP-10 further,reduce IP-10 further,substantially reduce IP-10 production,substantially reduce IP-10 production
